± gives the standard deviation of the averaged measurements.
Test system: ATP
Test: switch fluorescence ratio, 500 uM ATP over buffer (Cy3 cluster intensity, sum of 5 cycles each) (fold (ratio)); higher = stronger signal-on switching upon ATP binding; sequences stand for … in TCGTCGGCAGCGTCAGATGTGTATAAGAGACAGTTTTTTTTTTTTTTTTTTTTTTTTT…TC
Conditions: aptamer strand: ATP DNA aptamer (quencher-CACCTGGGGGAGTATTGCGGAGGAAGG + anchor), 100 nM annealed; ATP concentration: 500 uM
In short: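 For every switch-domain sequence, the fluorescence ratio is the mean of per-cluster values, each being summed target-cycle Cy3 intensity over summed buffer-cycle Cy3 intensity. Clusters outside 100-1000 RFU were excluded. On a modified Illumina MiSeq flow-cell, the Cy3-labelled switching-strand clusters were annealed to 100 nM quencher-labelled ATP aptamer, imaged in selection buffer and then after 15 min with 500 uM ATP at 22 °C. Five such cycles were run, with NaOH stripping and re-annealing between them.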
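Note: ATP exposure 15 min at 22 °C before imaging.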

Row | Sequence | switch fluorescence ratio
1 | TGCCAGTGGG | 1.04 ± 0.068
2 | TGCCATGTGT | 1.032 ± 0.0036
3 | TGCCCCCGGT | 1.08 ± 0.066
4 | TGCCCGAGCT | 1.03 ± 0.1
5 | TGCCCTTGCG | 0.9827 ± 0.0046
6 | TGCCGAAGGT | 1.03 ± 0.024
7 | TGCCGGACCG | 1.02 ± 0.033
8 | TGCCGGGTTC | 0.979 ± 0.03
9 | TGCCGTTTGC | 0.965 ± 0.029
10 | TGCCTAAGTA | 1.02 ± 0.018
11 | TGCCTCGGGG | 1.042 ± 0.0049
12 | TGCCTGGGTG | 2.74 ± 1.1
13 | TGCCTGTCTA | 1.02 ± 0.018
14 | TGCCTTTGTA | 0.963 ± 0.013
15 | TGCGAAAGGA | 1.01 ± 0.016
16 | TGCGAAATTT | 0.965 ± 0.013
17 | TGCGACAGGG | 0.988 ± 0.013
18 | TGCGACCGTT | 1.01 ± 0.033
19 | TGCGAGGCTT | 1.022 ± 0.0058
20 | TGCGAGGTTG | 1.01 ± 0.041
21 | TGCGAGTATT | 1.038 ± 0.0023
22 | TGCGAGTGCT | 0.976 ± 0.037
23 | TGCGAGTTCT | 1 ± 0.014

Row | Sequence | switch fluorescence ratio
24 | TGCGATAAGC | 1.026 ± 0.01
25 | TGCGCCTACC | 1.28 ± 0.058
26 | TGCGCCTTAC | 3.37 ± 0.38
27 | TGCGGACAA | 0.9948 ± 0.0043
28 | TGCGGGAGTA | 1.003 ± 0.0014
29 | TGCGGGCAAG | 0.992 ± 0.015
30 | TGCGGGCGTT | 0.993 ± 0.013
31 | TGCGGGGTGC | 1.02 ± 0.0028
32 | TGCGGTCACT | 0.9964 ± 0.0056
33 | TGCGTAAAAT | 1.008 ± 0.0028
34 | TGCGTATTCT | 0.967 ± 0.045
35 | TGCGTGGGGT | 1.01 ± 0.022
36 | TGCGTGTCTT | 1.01 ± 0.018
37 | TGCGTTATTA | 0.999 ± 0.017
38 | TGCTAATAGG | 1.01 ± 0.02
39 | TGCTACACGT | 1.01 ± 0.027
40 | TGCTACGTTT | 0.991 ± 0.02
41 | TGCTAGAGCT | 0.997 ± 0.011
42 | TGCTATAGAG | 1.048 ± 0.0012
43 | TGCTATGGC | 1.09 ± 0.092
44 | TGCTATTAGG | 0.979 ± 0.045
45 | TGCTCAGCTG | 1.04 ± 0.026
46 | TGCTCCTGAT | 1.02 ± 0.055

Row | Sequence | switch fluorescence ratio
47 | TGCTCGGTTT | 0.998 ± 0.045
48 | TGCTCTACGG | 1 ± 0.018
49 | TGCTGAAAGA | 1.04 ± 0.028
50 | TGCTGAAATG | 1.03 ± 0.07
51 | TGCTGCTGAG | 0.971 ± 0.016
52 | TGCTGGCCAC | 1.01 ± 0.013
53 | TGCTGGGGTC | 0.977 ± 0.016
54 | TGCTGGGTGG | 1.01 ± 0.02
55 | TGCTGTAACG | 1.02 ± 0.017
56 | TGCTGTAAGG | 1 ± 0.036
57 | TGCTGTAATA | 1.035 ± 0.0031
58 | TGCTGTCTGT | 0.9903 ± 0.0058
59 | TGCTGTTAAT | 0.9829 ± 0.0089
60 | TGCTGTTGGA | 0.953 ± 0.011
61 | TGCTTAAAGT | 0.9807 ± 0.0054
62 | TGCTTAGACT | 1.18 ± 0.27
63 | TGCTTATCTA | 1.016 ± 0.0077
64 | TGCTTATGGG | 0.965 ± 0.016
65 | TGCTTATTGG | 0.9725 ± 0.0081
66 | TGCTTATTTG | 1 ± 0.023
67 | TGCTTCTCGA | 0.991 ± 0.031
68 | TGCTTGCTGT | 0.991 ± 0.01
69 | TGCTTGGTTT | 1.02 ± 0.018

Row | Sequence | switch fluorescence ratio
70 | TGCTTTACGC | 1.03 ± 0.03
71 | TGCTTTGCCG | 1.09 ± 0.072
72 | TGCTTTTGAT | 1 ± 0.048
73 | TGCTTTTTGT | 1.02 ± 0.046
74 | TGGAAAAATG | 0.991 ± 0.031
75 | TGGAAAAGTT | 0.993 ± 0.017
76 | TGGAAAGCTG | 1.04 ± 0.025
77 | TGGAAAGGAG | 1.02 ± 0.013
78 | TGGAAAGGGT | 1.06 ± 0.035
79 | TGGAAATGCC | 1.07 ± 0.065
80 | TGGAAGCGGG | 1.04 ± 0.07
81 | TGGAAGGGTG | 1.05 ± 0.017
82 | TGGAATATGG | 1.04 ± 0.021
83 | TGGAATGGGG | 1 ± 0.037
84 | TGGAATTTAG | 1.013 ± 0.00072
85 | TGGACCCGAT | 0.978 ± 0.011
86 | TGGACCTTTT | 1.64 ± 0.82
87 | TGGAGAAAGG | 1.13 ± 0.29
88 | TGGAGAAGAT | 0.978 ± 0.03
89 | TGGAGAAGGT | 1.02 ± 0.027
90 | TGGAGAGGTC | 0.999 ± 0.022
91 | TGGAGAGTAG | 1.01 ± 0.032
92 | TGGAGCAGGG | 1.05 ± 0.036

Row | Sequence | switch fluorescence ratio
93 | TGGAGCCAGT | 1.01 ± 0.041
94 | TGGAGGGAAG | 1.03 ± 0.059
95 | TGGAGGGCTC | 1.01 ± 0.025
96 | TGGAGGGGGG | 0.997 ± 0.086
97 | TGGAGTAGG | 1.01 ± 0.025
98 | TGGAGTAGGG | 0.9874 ± 0.0062
99 | TGGAGTGGGG | 1 ± 0.025
100 | TGGAGTTTGG | 1.15 ± 0.19
101 | TGGATACTTA | 1.02 ± 0.013
102 | TGGATAGCGC | 1.01 ± 0.011
103 | TGGATCACGG | 1.02 ± 0.0054
104 | TGGATCGTAG | 0.978 ± 0.011
105 | TGGATCTCAG | 0.982 ± 0.012
106 | TGGATGAGTG | 0.9822 ± 0.0077
107 | TGGATGGGGA | 0.98 ± 0.028
108 | TGGATGTCAG | 0.992 ± 0.054
109 | TGGATGTGTG | 0.962 ± 0.038
110 | TGGATTATTA | 1.02 ± 0.014
111 | TGGATTGGGG | 0.978 ± 0.059
112 | TGGATTGTCC | 1.03 ± 0.012
113 | TGGATTTAGT | 0.9825 ± 0.0084
114 | TGGCACAGGG | 1.06 ± 0.016
115 | TGGCAGACTC | 1.28 ± 0.013

Row | Sequence | switch fluorescence ratio
116 | TGGCAGTCTA | 0.979 ± 0.018
117 | TGGCAGTGGT | 0.993 ± 0.03
118 | TGGCAGTGTG | 1.05 ± 0.019
119 | TGGCATAGGT | 1.02 ± 0.03
120 | TGGCATAGTT | 0.995 ± 0.042
121 | TGGCCAGGGT | 1.06 ± 0.031
122 | TGGCCCGGGA | 0.9878 ± 0.0035
123 | TGGCCGGGCG | 1.011 ± 0.0026
124 | TGGCCTAGG | 1 ± 0.029
125 | TGGCGATTGT | 0.986 ± 0.014
126 | TGGCGCCCTT | 1.01 ± 0.012
127 | TGGCGGACAG | 0.99 ± 0.026
128 | TGGCGGTGCT | 0.997 ± 0.028
129 | TGGCGTGTTA | 1.02 ± 0.044
130 | TGGCTAAAAT | 0.998 ± 0.023
131 | TGGCTAAGGT | 1.023 ± 0.0017
132 | TGGCTCATAC | 1.45 ± 0.041
133 | TGGCTCGGGG | 1.03 ± 0.051
134 | TGGCTGGGTA | 0.983 ± 0.043
135 | TGGCTTAAAC | 1.18 ± 0.28
136 | TGGCTTACAG | 1.003 ± 0.0022
137 | TGGCTTGGCG | 1.01 ± 0.072
138 | TGGGAAAAAG | 0.972 ± 0.039

Row | Sequence | switch fluorescence ratio
139 | TGGGAAAGCA | 1 ± 0.012
140 | TGGGAAATCT | 1.17 ± 0.25
141 | TGGGAACCGT | 1.18 ± 0.32
142 | TGGGAAGACA | 1.06 ± 0.092
143 | TGGGAAGATT | 1.028 ± 0.0041
144 | TGGGAAGGCA | 1 ± 0.025
145 | TGGGAAGTCC | 1.001 ± 0.0074
146 | TGGGAATATG | 1 ± 0.036
147 | TGGGAATGAC | 2.01 ± 1.4
148 | TGGGACAGTG | 0.968 ± 0.058
149 | TGGGACATGG | 0.995 ± 0.031
150 | TGGGACCAGG | 1.05 ± 0.03
151 | TGGGACGTAC | 1.79 ± 0.15
152 | TGGGACTTGG | 1.01 ± 0.018
153 | TGGGACTTTG | 1.0328 ± 0.001
154 | TGGGAGAGGT | 0.996 ± 0.02
155 | TGGGAGAGTC | 0.989 ± 0.047
156 | TGGGAGGCAA | 1.16 ± 0.021
157 | TGGGAGGGGA | 1.03 ± 0.035
